According to US20050019758A1:

What was measured:
Assay in all cases: cell-based or functional assay
[1] = molecular target: F protein of RS 9320 (prototype B1) (Respiratory Syncytial Virus)
[2] = molecular target: F protein of RS Long strain virus (native form, on virus and infected VERO cells) (Respiratory Syncytial Virus) (UniProt P12568)
[3] = molecular target: F protein of RSV clinical isolate A1-V1763 (Respiratory Syncytial Virus)
[4] = molecular target: F protein of RSV clinical isolate A2-626 (Respiratory Syncytial Virus)
[5] = molecular target: F protein of RSV clinical isolate A2-847 (Respiratory Syncytial Virus)
[6] = molecular target: F protein of RSV clinical isolate A3-7062 (Respiratory Syncytial Virus)
[7] = molecular target: F protein of RSV clinical isolate A4-6652 (Respiratory Syncytial Virus)
[8] = molecular target: F protein of RSV clinical isolate B1-6973 (Respiratory Syncytial Virus)
[9] = molecular target: F protein of RSV clinical isolate B2-6556 (Respiratory Syncytial Virus)
[10] = molecular target: F protein of RSV clinical isolate B3-447 (Respiratory Syncytial Virus)

F protein of RS Long strain virus (native form, on virus and infected VERO cells) (Respiratory Syncytial Virus), sequence (P12568 26-574): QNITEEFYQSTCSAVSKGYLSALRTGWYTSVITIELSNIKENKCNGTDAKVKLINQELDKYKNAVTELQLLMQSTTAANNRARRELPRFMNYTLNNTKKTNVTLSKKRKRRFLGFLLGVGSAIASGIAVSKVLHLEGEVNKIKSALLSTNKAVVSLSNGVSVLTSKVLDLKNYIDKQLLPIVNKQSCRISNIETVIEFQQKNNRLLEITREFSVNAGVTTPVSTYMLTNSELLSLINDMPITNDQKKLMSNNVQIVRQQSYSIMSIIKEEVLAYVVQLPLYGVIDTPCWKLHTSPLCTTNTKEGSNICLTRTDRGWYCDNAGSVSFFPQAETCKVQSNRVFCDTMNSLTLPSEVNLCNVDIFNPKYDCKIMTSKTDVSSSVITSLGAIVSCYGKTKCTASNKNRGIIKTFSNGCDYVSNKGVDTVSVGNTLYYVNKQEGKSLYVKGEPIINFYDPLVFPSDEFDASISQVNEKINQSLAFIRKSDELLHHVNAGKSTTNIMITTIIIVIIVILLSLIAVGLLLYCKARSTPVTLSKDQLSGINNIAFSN

SB 209763 (antibody)
Fusion-Inhibition Titer EC50 [1]: 2.5 µg/mL
Fusion-Inhibition Titer EC50 [2]: 1.3 µg/mL
Fusion-Inhibition Titer EC50 [3]: 1.95 µg/mL
Fusion-Inhibition Titer EC50 [4]: 0.36 µg/mL
Fusion-Inhibition Titer EC50 [5]: 0.27 µg/mL
Fusion-Inhibition Titer EC50 [6]: 1.67 µg/mL
Fusion-Inhibition Titer EC50 [7]: 1.52 µg/mL
Fusion-Inhibition Titer EC50 [8]: 2.22 µg/mL
Fusion-Inhibition Titer EC50 [9]: 2.05 µg/mL
Fusion-Inhibition Titer EC50 [10]: 1.7 µg/mL
